Results as given in patent publication US20050032064A1 (GENFIT, published 2005).

Biological target: the molecule itself
Experiment: electrophoretic mobility shift assay, in vitro translated protein on labeled Rev-DR2 oligonucleotide
Method: The electrophoretic gel shift studies were carried out by using the indicated end-labeled oligonucleotides, in the presence of the murine PPAR GAMMA receptor, murine RXR ALPHA receptor, human REV-ERB ALPHA receptor produced by reticulocyte lysate, or non-programmed lysates (lysate). Binding competition experiments were performed by adding a 0, 10 or 100-fold excess of unlabeled Rev-DR2 oligonucleotide.
The pSG5-mPPAR-gamma, pSG5-mRXR-alpha and pSG5-hRev-erb alpha plasmids were transcribed in vitro with T7 polymerase and translated with the rabbit reticulocyte lysate system (Promega, Madison, Wis., USA). Gel shift experiments with REV-ERB ALPHA, PPAR GAMMA and/or RXR ALPHA proteins were carried out as previously described (Gervois, P. et al., Molecular Endocrinology 1999, 13(3): 400-409; Vu-Dac, N. et al., J. Biol. Chem. 1994, 269(49): 31012-31018). For the competition experiments, increasing quantities of the indicated unlabeled probe were added immediately before adding the labeled oligonucleotide. The complexes were resolved in 5% polyacrylamide gels using […] buffer (90 mM borate, 2.5 mM EDTA, pH 8.3) at room temperature. Gels were dried and exposed overnight at −70° C. on Rayon-X film (XOMAT-AR, Eastman Kodak, Rochester, N.Y., USA).
Lastly, binding of the PPAR GAMMA receptor to the Rev-DR2 site was studied. […]

B1: human REV-ERB ALPHA receptor (receptor)
chain: MTTLDSNNNTGGVITYIGSSGSSPSRTSPESLYSDNSNGSFQSLTQGCPTYFPPSPTGSLTQDPARSFGSIPPSLSDDGSPSSSSSSSSSSSSFYNGSPPGSLQVAMEDSSRVSPSKSTSNITKLNGMVLLCKVCGDVASGFHYGVHACEGCKGFFRRSIQQNIQYKRCLKNENCSIVRINRNRCQQCRFKKCLSVGMSRDAVRFGRIPKREKQRMLAEMQSAMNLANNQLSSQCPLETSPTQHPTPGPMGPSPPPAPVPSPLVGFSQFPQQLTPPRSPSPEPTVEDVISQVARAHREIFTYAHDKLGSSPGNFNANHASGSPPATTPHRWENQGCPPAPNDNNTLAAQRHNEALNGLRQAPSSYPPTWPPGPAHHSCHQSNSNGHRLCPTHVYAAPEGKAPANSPRQGNSKNVLLACPMNMYPHGRSGRTVQEIWEDFSMSFTPAVREVVEFAKHIPGFRDLSQHDQVTLLKAGTFEVLMVRFASLFNVKDQTVMFLSRTTYSLQELGAMGMGDLLSAMFDFSEKLNSLALTEEELGLFTAVVLVSADRSGMENSASVEQLQETLLRALRALVLKNRPLETSRFTKLLLKLPDLRTLNNMHSEKLLSFRVDAQ
notes: also called hRev-erb alpha
B1: binds.
